Where two headings read alike, the source gives them in different places.
What was measured:
[1] = biological target: T1, Pig (Sus scrofa) CTLA-4 on HEK293 cells (Sus scrofa, UniProt Q9MYX7 36-223); test: flow cytometry on HEK293 cells transiently expressing pig CTLA-4
T1 construct: whole, on cells; also called pig CTLA-4
Experimental: (§1) Macaque (Macaca fascicularis), pig (Sus scrofa) and mouse (Mus musculus) CTLA-4 proteins were transiently expressed on the surface of HEK293 cells. […] Binding was measured using FACS and analyzed.

[2] = biological target: T2, human CTLA-4 expressed on cells (human, UniProt P16410 36-223); test: flow cytometry, inhibition of CD86-mFC binding to HEK293-hCTLA-4 cells, reference tremelimumab
T2 construct: whole, on cells; On stably or transiently transfected HEK293 cells; also called hCTLA-4; HEK293-hCTLA-4 cells
T2 sequence (P16410 36-223): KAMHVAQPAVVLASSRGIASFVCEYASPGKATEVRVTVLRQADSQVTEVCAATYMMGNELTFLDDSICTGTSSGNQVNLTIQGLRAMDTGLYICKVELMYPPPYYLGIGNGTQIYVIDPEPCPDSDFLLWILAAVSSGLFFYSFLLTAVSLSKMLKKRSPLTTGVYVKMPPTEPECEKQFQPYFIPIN
Experimental: (§2) As part of their activity, CTLA-4 therapeutic antibodies block the interaction between CTLA-4 and its ligands, leaving the ligands free for CD28 binding. […] First, HEK293-hCTLA-4 cells were incubated with the tested antibodies in a serial dilution for 30 minutes. […] The fluorescence was measured and analyzed. The experiment was performed in triplicate and is representative of three biological repeats.

[3] = biological target: T3, Recombinant human CTLA-4-his (Sino Biologicals, 11159-H08H) (human, UniProt P16410 36-162); test: SPR (Biacore T100), antibody captured on anti-human chip, CTLA-4-his in solution
T3 construct: Bought protein; also called dimer hCTLA-4; not shown: his tag
T3 sequence (P16410 36-162 limits assumed): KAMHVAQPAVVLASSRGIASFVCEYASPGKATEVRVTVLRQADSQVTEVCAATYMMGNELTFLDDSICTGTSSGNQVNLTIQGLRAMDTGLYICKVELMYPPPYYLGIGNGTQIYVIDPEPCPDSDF
Experimental: (§3) Recombinant human CTLA-4-his (Sino Biologicals, 11159-H08H) was added in a serial 2-fold dilution, starting at a concentration of 500nM. […] The measurement was corrected using the baseline channel and the protein-antibody interaction was measured by the change in surface resonance and quantified with Biacore T100 control software (version 2.0.4).

[4] = biological target: T4, Macaque (Macaca fascicularis) CTLA-4 on HEK293 cells (Macaca fascicularis, UniProt G7PL88 36-223); test: flow cytometry on HEK293 cells transiently expressing macaque CTLA-4
T4 construct: whole, on cells; also called macaque CTLA-4
T4 sequence (G7PL88 entry or part of it): as the sequence (P16410 36-223) above, with S14N, I18T, L106M counted along it
Experimental: as §1

[5] = biological target: T3, Recombinant human CTLA-4-his (Sino …); test: SPR (Biacore T100), reference ipilimumab
Experimental: as §3

[6] = biological target: T3, Recombinant human CTLA-4-his (Sino …); test: ELISA, plate coated with non-reduced CTLA-4-his (dimer), anti-human-HRP, OD450; the box beside the curves does not name the quantity, the value lies at the half-maximal point of the curve (OD450 0.2 to 1.4)
Experimental: hCTLA-4 can exist in monomer and dimer forms on the cell surface. […] The recombinant protein was incubated for 10 minutes with 100 mM DTT to reduce the protein to its monomeric form. […] The plates were coated overnight at 4° C., followed by a wash step and blocking with 20% milk for 1 hour at 37° C. […] The plate was washed and a secondary anti-human-HRP antibody (Jackson) was added at a 1:5000 dilution. A TMB solution was added, followed by stop solution and the OD at 450 nm was measured. Data was analyzed with Prism software.

[7] = biological target: T5, Mouse (Mus musculus) CTLA-4 on HEK293 cells (Mus musculus, UniProt P09793 36-223); test: flow cytometry on HEK293 cells transiently expressing mouse CTLA-4
T5 construct: whole, on cells; also called mouse CTLA-4
Experimental: as §1

[8] = biological target: T2, human CTLA-4 expressed on cells; test: flow cytometry on HEK293-hCTLA-4 cells
Experimental: (§4) To test the binding of antibodies to CTLA-4 under more physiological conditions, the binding of CTLA-4 antibodies to cell-surface CTLA-4 was tested. […] The surface expression of hCTLA-4 in the obtained cell line was tested using a commercial anti-CTLA-4 antibody and compared to the parent cell line (HEK293 without transfection). […] The anti-CTLA-4 antibodies were incubated in serial dilution concentrations with the HEK293-hCTLA-4 cells for 1 hour on ice. Following a wash step, an anti-human antibody conjugated to ALEXA FLUOR® 647® was added for an additional hour. The cells were washed, and propidium iodide (PI) was added to exclude dead cells. The fluorescent signal was measured using FACS and analyzed. Dead cells were removed based on the PI signal. The population was gated based on forward and side scatter (FSC and SSC) parameters, and doublets were removed. The Median Fluorescent Intensity (MFI) of the appropriate channel was calculated for the live single cells from each group. The MFI was plotted versus antibody concentration in Prism software (V6.01) and kinetic parameters were obtained using a curve fit dose response function with four parameters. […] The lower EC₅₀ values indicate increased binding affinity to cell surface hCTLA-4.

[9] = biological target: T1, Pig (Sus scrofa) CTLA-4 on HEK293 cells; test: flow cytometry on HEK293 cells transiently expressing pig CTLA-4, reference ipilimumab
Experimental: as §1

[10] = biological target: non-recycling version of CTLA-4 on CTLA-4 effector cells (Promega CS186920) (human, UniProt P16410 36-223); test: cell-based or functional assay
Chain of non-recycling version of CTLA-4 on CTLA-4 effector cells (Promega CS186920) (P16410 36-223): as the sequence (P16410 36-223) above

[11] = biological target: T5, Mouse (Mus musculus) CTLA-4 on HEK293 …; test: flow cytometry on HEK293 cells transiently expressing mouse CTLA-4, reference tremelimumab
Experimental: as §1

[12] = biological target: T2, human CTLA-4 expressed on cells; test: flow cytometry on HEK293-hCTLA-4 cells; remark: listed apart in the source
Experimental: as §4

[13] = biological target: T4, Macaque (Macaca fascicularis) CTLA-4 on …; test: flow cytometry on HEK293 cells transiently expressing macaque CTLA-4, reference tremelimumab
Experimental: as §1

[14] = biological target: T2, human CTLA-4 expressed on cells; test: flow cytometry, inhibition of CD86-mFC binding to HEK293-hCTLA-4 cells
Experimental: as §2

T1 sequence (Q9MYX7 36-223): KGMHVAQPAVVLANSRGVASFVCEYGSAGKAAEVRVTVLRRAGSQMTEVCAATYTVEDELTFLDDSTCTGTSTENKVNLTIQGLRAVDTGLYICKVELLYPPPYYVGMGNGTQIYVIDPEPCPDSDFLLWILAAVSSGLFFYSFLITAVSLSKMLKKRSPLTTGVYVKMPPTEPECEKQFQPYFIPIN

B1: Ab55h (antibody, V domains shown)
VH: QVQLQESGPGLVKPSETLSLTCAVSGYSISGDYYWGWIRQPPGKGLEWIGSIYHSGYTYYNPSLKSRVTISVDTSKNQFSLKLSSVTAADTAVYYCARDSGWYVIAFDYWGQGTLVTVSS
VL: EIVMTQSPATLSVSPGERATLSCRASQSVSSNLAWYQEKPGQAPRLLIYGASTRATGIPARFSGSGSGTEFTLTISSLQSEDFAVYYCQQYNNWPPLTFGGGTKVEIK
notes: Human form, compared with an hIgG1 isotype control
EC50 [1]: 0.12 nM
Ratio Tremelimumab:Ab55h of IC50 [2]: 2.8 fold
Kd [3]: 0.86 nM
koff [3]: 0.0006 s⁻¹
EC50 [4]: 0.3 nM
Ratio Ipilimumab:Ab55h of Kd [5]: 8.1 fold
Ratio Ipilimumab:Ab55h of Koff [5]: 1.3 fold
Ratio Ipilimumab:Ab55h of Kon [5]: 0.16 fold
EC50 [6]: 0.008 nM
EC50 [7]: 34 nM
EC50 [8]: 0.17 nM
Ratio Ipilimumab:Ab55h of EC50 [9]: 5590 fold
NFAT reporter EC50 [10]: 0.63 nM
NFAT reporter EC50, Ratio Ipilimumab:Ab55h [10]: 3.65 fold
Ratio Tremelimumab:Ab55h of EC50 [11]: 3 fold
EC50 [12]: 0.24 nM
Ratio Tremelimumab:Ab55h of EC50 [13]: 1.7 fold
IC50 [14]: 1.5 nM
